Results on 2 molecules are retold here after PMC3531493, “Inhibition of a NEDD8 Cascade Restores Restriction of HIV by APOBEC3G” (PLoS Pathogens, 2012).

For one assay, the target named is CUL5/RBX2 complex (UniProt Q93034).
The target of assay [1] is T1, UBE2F residues 26-185 (UBE2F core) (UniProt Q969M7 26-185).
T1 construct: UBE2F, residues 26-185 (UBE2F core); Unlabelled when added to 15N RBX2 RING; 15N-labelled when RBX2 RING was added to it; source: E. coli BL21(DE3)-Star or BL21(DE3), purified (Ni-NTA, TEV cleavage, SEC)
T1 sequence (looked up): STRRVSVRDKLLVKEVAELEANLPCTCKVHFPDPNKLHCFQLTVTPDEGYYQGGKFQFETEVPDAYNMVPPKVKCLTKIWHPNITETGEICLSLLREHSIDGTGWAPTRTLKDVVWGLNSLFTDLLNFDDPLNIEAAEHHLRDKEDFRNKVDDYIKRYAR
Description: NMR titration; 15N-HSQC of 50 µM 15N-labelled RBX2 RING with unlabelled E2 added (∼100 µM in Fig. 3D; increasing concentrations in Fig. 5D); 20°C; 100 mM NaCl, 1 mM DTT, 25 mM HEPES pH 7.5. To be noted: both partners purified.

In the next assay the target is T2, UBE2F, full-length (UniProt Q969M7 1-185).
T2 construct: UBE2F, NEDD8-conjugating enzyme, full-length; Unlabelled in the HSQC experiments on 15N-labelled RBX2 RING; also called NEDD8 E2; NEDD8-conjugating enzyme UBE2F; source: E. coli BL21(DE3)-Star or BL21(DE3), purified (Ni-NTA, TEV cleavage, SEC)
T2 sequence (looked up): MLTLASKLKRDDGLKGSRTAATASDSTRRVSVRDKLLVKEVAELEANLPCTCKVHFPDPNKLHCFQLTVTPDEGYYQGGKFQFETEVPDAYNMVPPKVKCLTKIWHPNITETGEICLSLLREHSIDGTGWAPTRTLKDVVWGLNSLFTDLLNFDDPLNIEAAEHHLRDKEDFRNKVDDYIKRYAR
The description is as above. The settings on record: both partners purified.

CUL5/RBX2 complex, sequence (Q93034 whole entry, the tested form may be a part, one chain of several): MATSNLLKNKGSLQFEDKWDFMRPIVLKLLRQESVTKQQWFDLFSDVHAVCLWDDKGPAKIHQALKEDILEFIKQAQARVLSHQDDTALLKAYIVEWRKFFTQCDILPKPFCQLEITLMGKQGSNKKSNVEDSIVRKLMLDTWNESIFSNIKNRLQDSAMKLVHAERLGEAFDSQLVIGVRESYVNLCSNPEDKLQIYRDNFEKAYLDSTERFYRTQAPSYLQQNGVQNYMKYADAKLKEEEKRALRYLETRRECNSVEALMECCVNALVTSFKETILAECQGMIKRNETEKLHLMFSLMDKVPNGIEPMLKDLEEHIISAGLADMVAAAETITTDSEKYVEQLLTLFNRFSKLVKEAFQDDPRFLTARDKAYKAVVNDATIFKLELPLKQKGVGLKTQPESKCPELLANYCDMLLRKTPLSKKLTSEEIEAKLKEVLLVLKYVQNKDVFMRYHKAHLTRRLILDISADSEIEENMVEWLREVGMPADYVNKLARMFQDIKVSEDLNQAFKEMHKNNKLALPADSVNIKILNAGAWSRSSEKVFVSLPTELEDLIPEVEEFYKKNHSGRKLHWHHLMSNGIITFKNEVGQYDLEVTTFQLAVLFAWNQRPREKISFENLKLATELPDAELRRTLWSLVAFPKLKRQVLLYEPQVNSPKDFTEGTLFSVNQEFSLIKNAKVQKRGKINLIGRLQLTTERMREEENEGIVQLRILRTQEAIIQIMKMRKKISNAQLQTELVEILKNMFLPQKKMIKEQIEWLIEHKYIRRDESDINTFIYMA

For the molecule “UBE2F (N92A) (from UniProt Q969M7 26-185) (enzyme)”, the rate of NEDD8 transfer from UBE2F mutant to CUL5/RBX2 (pulse-chase), against wild-type UBE2F (orders of magnitude (reduction)) with CUL5/RBX2 complex was 3.

B1: RBX2 RING domain (44-113) (domain or fragment, UniProt Q9UBF6 44-113, looked up)
chain: DVECDTCAICRVQVMDACLRCQAENKQEDCVVVWGECNHSFHNCCMSLWVKQNNRCPLCQQDWVVQRIGK
notes: RBX2 (RING-box protein 2), RING domain, residues 44-113; 15N-labelled when the E2 enzymes were added to it; unlabelled when added to 15N UBE2F core; also called RBX2 core domain; source: E. coli BL21(DE3)-Star or BL21(DE3), with ZnCl2, purified (Ni-NTA, TEV cleavage, SEC)
For B1, the binding result in assay [1] is listed as “binds”; with UBE2F, full-length, “binds”.
